Tested on: HBV-DNA in 2.2.15 cells
Test: HBV-DNA Southern blot in 2.2.15 cells
Assay type: cell-based, hepatitis B virus
Protocol: Southern blot: Extraction of HBV-DNA from 2.2.15 cells: add drugs and incubate 2.2.15 cells for 8 days, remove medium and harvest cells, lyse cells with lysis solutions, extracts with equal volume phenol:chloroform:isopentanol twice, add absolute ethanol to precipitate nucleic acid, vacuum dry, re-dissolve in 20 μl TE buffer, add DNA sample buffer, put samples into agarose gel for electrophoresis. After electrophoresis, denature, neutralize and transfer to membrane. Oven dry, hybridize, expose with dot blotting the same time. Scan developed film with scanner, analyze relative density with gel-pro software, and calculate suppression rate and IC50.

[1] = Arginase 2.5 μg/ml (unit as headed), batch 1, day 8
[2] = Arginase 2.5 μg/ml (unit as headed), batch 2, day 8
[3] = Arginase 5 μg/ml (unit as headed), batch 1, day 8
[4] = Arginase 5 μg/ml (unit as headed), batch 2, day 8
[5] = Arginase 10 μg/ml (unit as headed), batch 1, day 8
[6] = Arginase 10 μg/ml (unit as headed), batch 2, day 8
[7] = Arginase 20 μg/ml (unit as headed), batch 1, day 8
[8] = Arginase 20 μg/ml (unit as headed), batch 2, day 8

B1: Arginase: Pegylated recombinant human arginase (BCT-100); human arginase I with N-terminal six-histidine tag, SEQ ID NO: 3 (protein, listed as Homo sapiens)
chain: MHHHHHHMSAKSRTIGIIGAPFSKGQPRGGVEEGPTVLRKAGLLEKLKEQECDVKDYGDLPFADIPNDSPFQIVKNPRSVGKASEQLAGKVAQVKKNGRISLVLGGDHSLAIGSISGHARVHPDLGVIWVDAHTDINTPLTTTSGNLHGQPVSFLLKELKGKIPDVPGFSWVTPCISAKDIVYIGLRDVDPGEHYILKTLGIKYFSMTEVDRLGIGKVMEETLSYLLGRKKRPIHLSFDVDGLDPSFTPATGTPVVGGLTYREGLYITEEIYKTGLLSGLDIMEVNPSLGKTPEEVTRTVNTAVAITLACFGLAREGNHKPIDYLNPPK
modifications: PEGylated
B1 was tested, and the “Effect on HBV-DNA in cells (result in words)” value (2.2.15 cells, 8 days) was “lowers”, the “HBV-DNA Southern Blot In Lane % Suppression” value [1] was 31.6525% and the “HBV-DNA Southern Blot Sum % Suppression” value [1] was 26.4131%. The “HBV-DNA Southern Blot Sum (IOD)” value (Arginase 2.5 μg/ml (unit as headed), batch 1, day 8, control 29421) was 21650 IOD, the “HBV-DNA Southern Blot In Lane (IOD)” value (Arginase 2.5 μg/ml (unit as headed), batch 1, day 8, control 42082) was 28762 IOD and the “HBV-DNA Southern Blot In Lane % Suppression” value [2] was 38.6255%. The “HBV-DNA Southern Blot Sum % Suppression” value [2] was 0%, the “HBV-DNA Southern Blot Sum (IOD)” value (Arginase 2.5 μg/ml (unit as headed), batch 2, day 8, control 66143) was 68619 IOD and the “HBV-DNA Southern Blot In Lane (IOD)” value (Arginase 2.5 μg/ml (unit as headed), batch 2, day 8, control 76188) was 88350 IOD. The “HBV-DNA Southern Blot In Lane % Suppression” value [3] was 31.5717%, the “HBV-DNA Southern Blot Sum % Suppression” value [3] was 31.6679% and the “HBV-DNA Southern Blot Sum (IOD)” value (Arginase 5 μg/ml (unit as headed), batch 1, day 8, control 29421) was 20104 IOD. The “HBV-DNA Southern Blot In Lane (IOD)” value (Arginase 5 μg/ml (unit as headed), batch 1, day 8, control 42082) was 28796 IOD, the “HBV-DNA Southern Blot In Lane % Suppression” value [4] was 19.0752% and the “HBV-DNA Southern Blot Sum % Suppression” value [4] was 30.0259%. The “HBV-DNA Southern Blot Sum (IOD)” value (Arginase 5 μg/ml (unit as headed), batch 2, day 8, control 66143) was 46283 IOD, the “HBV-DNA Southern Blot In Lane (IOD)” value (Arginase 5 μg/ml (unit as headed), batch 2, day 8, control 76188) was 61655 IOD and the “HBV-DNA Southern Blot In Lane % Suppression” value [5] was 22.7722%. The “HBV-DNA Southern Blot Sum % Suppression” value [5] was 17.6303%, the “HBV-DNA Southern Blot Sum (IOD)” value (Arginase 10 μg/ml (unit as headed), batch 1, day 8, control 29421) was 24234 IOD and the “HBV-DNA Southern Blot In Lane (IOD)” value (Arginase 10 μg/ml (unit as headed), batch 1, day 8, control 42082) was 32499 IOD. The “HBV-DNA Southern Blot In Lane % Suppression” value [6] was 13.0559%, the “HBV-DNA Southern Blot Sum % Suppression” value [6] was 29.1172% and the “HBV-DNA Southern Blot Sum (IOD)” value (Arginase 10 μg/ml (unit as headed), batch 2, day 8, control 66143) was 46884 IOD. For the same molecule, the “HBV-DNA Southern Blot In Lane (IOD)” value (Arginase 10 μg/ml (unit as headed), batch 2, day 8, control 76188) was 66241 IOD, the “HBV-DNA Southern Blot In Lane % Suppression” value [7] was 25.2982% and the “HBV-DNA Southern Blot Sum % Suppression” value [7] was 14.9893%. For the same molecule, the “HBV-DNA Southern Blot Sum (IOD)” value (Arginase 20 μg/ml (unit as headed), batch 1, day 8, control 29421) was 25011 IOD, the “HBV-DNA Southern Blot In Lane (IOD)” value (Arginase 20 μg/ml (unit as headed), batch 1, day 8, control 42082) was 31436 IOD and the “HBV-DNA Southern Blot In Lane % Suppression” value [8] was 38.6255%. For the same molecule, the “HBV-DNA Southern Blot Sum % Suppression” value [8] was 47.9416%, the “HBV-DNA Southern Blot Sum (IOD)” value (Arginase 20 μg/ml (unit as headed), batch 2, day 8, control 66143) was 34433 IOD and the “HBV-DNA Southern Blot In Lane (IOD)” value (Arginase 20 μg/ml (unit as headed), batch 2, day 8, control 76188) was 46760 IOD. For the same molecule, the “HBV-DNA Southern Blot Sum IC50” value (batch 1, 8 days) was 25.42 IU/ml, the “HBV-DNA Southern Blot In Lane IC50” value (batch 1, day 8) was 21.45 IU/ml and the “HBV-DNA Southern Blot Sum IC50” value (batch 2, 8 days) was 14.17 IU/ml. The “HBV-DNA Southern Blot In Lane IC50” value (batch 2, day 8) was 18.67 IU/ml, the “HBV-DNA Southern Blot Sum IC50” value (two batches average, 8 days) was 19.79±7.95 IU/ml and the “HBV-DNA Southern Blot In Lane IC50” value (two batches average, day 8) was 20.06±1.96 IU/ml.
